Measurements from patent publication US20050202538A1 (Merck KGaA, published 2005).

Molecular target: T1, EPO receptor (expressed on TF-1 cells) (UniProt P19235)
T1 sequence (looked up): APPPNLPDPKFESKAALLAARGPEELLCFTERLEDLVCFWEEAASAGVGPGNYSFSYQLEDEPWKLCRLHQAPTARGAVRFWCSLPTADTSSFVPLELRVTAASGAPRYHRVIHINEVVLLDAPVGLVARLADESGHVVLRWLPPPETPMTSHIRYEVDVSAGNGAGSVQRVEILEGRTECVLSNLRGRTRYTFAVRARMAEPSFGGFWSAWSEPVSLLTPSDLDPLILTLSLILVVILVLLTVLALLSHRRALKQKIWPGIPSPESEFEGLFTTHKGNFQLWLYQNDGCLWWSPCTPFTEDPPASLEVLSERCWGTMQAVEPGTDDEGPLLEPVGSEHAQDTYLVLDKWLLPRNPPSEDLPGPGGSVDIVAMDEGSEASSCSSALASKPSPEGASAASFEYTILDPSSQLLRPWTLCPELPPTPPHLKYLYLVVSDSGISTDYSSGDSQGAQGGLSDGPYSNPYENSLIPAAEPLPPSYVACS
Test: cell-based or functional assay

Substance: EPO (Aranesp®) (ligand)
- ED50, TF-1 cell proliferation (3H-thymidine incorporation); S.D. 0.96, N 10: 2.4 ng/mL
